In PMC4712875:

Biological target: FGFR3 of chick prechordal mesoderm cells (chick (endogenous in prechordal mesoderm cells)) (UniProt P18460)
Test: immunostaining of cells or tissue; isolated st6 chick prechordal mesoderm cells cultured until st8, incubated with proNodal-FLAG, detected with anti-FLAG; non-targeted cells

Sequence of UniProt P18460 (P18460 20-806): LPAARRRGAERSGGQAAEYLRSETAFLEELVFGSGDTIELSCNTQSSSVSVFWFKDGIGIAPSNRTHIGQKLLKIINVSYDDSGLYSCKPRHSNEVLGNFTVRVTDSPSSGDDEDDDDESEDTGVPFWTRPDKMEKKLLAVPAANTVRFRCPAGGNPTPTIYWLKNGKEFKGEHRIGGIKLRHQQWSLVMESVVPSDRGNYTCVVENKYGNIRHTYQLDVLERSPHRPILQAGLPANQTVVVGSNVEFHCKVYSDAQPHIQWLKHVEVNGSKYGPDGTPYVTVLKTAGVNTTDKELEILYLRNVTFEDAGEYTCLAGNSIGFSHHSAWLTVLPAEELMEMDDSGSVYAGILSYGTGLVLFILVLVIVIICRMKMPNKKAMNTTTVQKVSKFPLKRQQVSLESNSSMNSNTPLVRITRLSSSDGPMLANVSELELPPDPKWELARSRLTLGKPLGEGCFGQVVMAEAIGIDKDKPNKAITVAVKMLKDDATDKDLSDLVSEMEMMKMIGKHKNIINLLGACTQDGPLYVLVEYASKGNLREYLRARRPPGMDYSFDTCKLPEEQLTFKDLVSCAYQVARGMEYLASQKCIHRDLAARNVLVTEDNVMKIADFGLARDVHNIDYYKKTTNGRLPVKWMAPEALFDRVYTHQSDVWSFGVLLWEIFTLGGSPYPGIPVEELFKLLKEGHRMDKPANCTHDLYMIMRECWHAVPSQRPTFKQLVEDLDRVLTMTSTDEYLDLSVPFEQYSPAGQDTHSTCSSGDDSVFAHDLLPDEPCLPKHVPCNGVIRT

## recombinant proNodal (recombinant Nodal cleavage mutant resistant to proprotein convertases), FLAG-tagged (from UniProt P43021 27-354) (ligand)
  percent of DAPI+ nuclei closely associated with anti-FLAG: 79%
